Measured values from US11643467B2, “Monoclonal antibody anti-FGFR4” (EXIRIS S.R.L., priority 2017, dated 2023).

Assays:
[1] = test system: FGFR4-dependent phosphorylation of FRS2; experiment: Western blot of FGF19-induced FRS2/FGFR4 phosphorylation in HCC cells; assay type: cell-based, human; settings: Huh7; antibodies 100 or 200 ug/mL, BLU9931 0.1 uM or 1 uM; FIG. 21
Method: FIG. 21. Inhibition of FGF19-dependent FGFR4 and FRS2 phosphorylation in Huh7 cells treated with the anti-FGFR4 chimeric antibodies analyzed by Western Blot. Cells were treated with 100 or 200 ug/mL of each antibody, with 0.1 uM or 1 uM BLU9931, or with PBS prior of the addition of FGF19/heparin under the experimental conditions described in the Example 8.
FIG. 31. […] (A) Graph of the absorbance values at 450 nm obtained from a FGFR4-Fc-dependent solid phase binding assay, as a function of the concentration of ab41948. Serial 1:3 dilutions (10 experimental points from 0.00005 ug/mL to 1 ug/mL) were tested in triplicate on the extracellular regions of FGFR4 fused with human Fc. The continuous line is the experimental one while the dashed line is that obtained by fitting experimental data to the “one site binding” equation. […] Inhibition curves were derived by 4P logistic fitting of the experimental data with the KaleidaGraph software, based on the residual absorbance at 450 nm (% of PBS control) at increasing antibody concentrations (1:3 serial dilutions from 0.001 to 10 ug/mL). […]
BLU9931 was included as positive control Ih before cell lysis at concentrations of […]. Total protein lysates in SDS were prepared and analyzed by Western Blot using an anti-phospho-FRS2 antibody (Tyrl96, Cell Signalling), an anti-FRS2 antibody (LSBio) and an anti-GAPDH antibody (Sigma-Aldrich). […]

[2] = test system: FGFR4 signalling pathway (CYP7A1, CTGF mRNA)

C=CC(=O)Nc1cccc(C)c1Nc1ncc2cc(-c3c(Cl)c(OC)cc(OC)c3Cl)ccc2n1 [BLU9931, reference compound]
inhibition of FGF19-induced FGFR4 and FRS2 phosphorylation [1]: could inhibit FGF19-induced FGFR4 and FRS2 phosphorylation

FGF19: recombinant FGF19 (Peprotech), FGFR4 ligand
increase of CTGF expression [2]: about 2.5 fold
reduction of CYP7A1 expression [2]: about 5 fold
